From publication PMC8851480 (Proceedings of the National Academy of Sciences of the …, 2022)

Legend:
[1] = target: N-terminal FLAG-tagged EBP50 (ERM-binding phosphoprotein 50) (human) (UniProt O14745); test: RNA immunoprecipitation
[2] = target: ezrin, endogenous in HEK293T cells (human (endogenous in HEK293T), UniProt P15311 1-586); test: RNA immunoprecipitation
Sequence of ezrin, endogenous in HEK293T cells (P15311 whole entry): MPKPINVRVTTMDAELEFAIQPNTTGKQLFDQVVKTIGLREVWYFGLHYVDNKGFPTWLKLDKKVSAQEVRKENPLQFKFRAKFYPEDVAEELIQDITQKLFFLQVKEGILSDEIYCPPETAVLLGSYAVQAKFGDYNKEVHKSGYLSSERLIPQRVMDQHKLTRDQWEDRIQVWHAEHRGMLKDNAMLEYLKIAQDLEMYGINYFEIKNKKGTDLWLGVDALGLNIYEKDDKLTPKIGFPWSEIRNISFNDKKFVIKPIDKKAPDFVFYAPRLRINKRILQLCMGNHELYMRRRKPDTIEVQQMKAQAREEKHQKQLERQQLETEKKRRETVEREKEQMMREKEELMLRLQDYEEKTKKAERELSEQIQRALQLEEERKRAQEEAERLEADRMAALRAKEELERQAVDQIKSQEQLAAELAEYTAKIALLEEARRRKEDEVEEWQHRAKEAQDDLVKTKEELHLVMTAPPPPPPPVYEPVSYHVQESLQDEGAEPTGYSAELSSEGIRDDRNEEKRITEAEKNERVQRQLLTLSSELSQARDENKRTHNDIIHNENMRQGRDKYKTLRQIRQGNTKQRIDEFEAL

ezrin, endogenous in HEK293T cells (from UniProt P15311 1-586) (natural protein)
fold enrichment of EZR mRNA over control IgG (RIP-qRT-PCR) [1]: 100 fold

RRRRRRRRRKERAHQKRSSKRAPQMDWSKKNELFSNL [Arg9-EBD peptide (28-amino-acid C terminus of the EBP50 EBD with an upstream 9-arginine sequence)]
fold reduction of the EBP50-EZR mRNA RIP signal against control peptide [2]: ~10 fold
